Reference: US20200264162A1

Biological target: tau-RFP (full-length 2N4R wild-type tau fused to the N-terminus of TagRFP) (UniProt P10636)
Test: fluorescence lifetime FRET in live HEK293 cells, titration of tau-RFP acceptor to tau-GFP donor

maximum energy transfer efficiency (E): 0.086
Substance: tau-GFP (full-length 2N4R wild-type tau fused to the N-terminus of EGFP) (from UniProt P10636 2-758)
